Target: gbrap_human GABARAP (UniProt O95166)
Sequence (O95166 whole entry): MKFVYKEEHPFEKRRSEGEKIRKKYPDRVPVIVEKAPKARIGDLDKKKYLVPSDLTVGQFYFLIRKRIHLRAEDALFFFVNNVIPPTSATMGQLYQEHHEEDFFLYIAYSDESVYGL

Row | Substance | effect of a mutation on the interaction
1 | Pericentriolar material 1 protein (Homo sapiens), Q15154 K1972M | with no effect
2 | Pericentriolar material 1 protein (Homo sapiens), Q15154 K1972N | with no effect
3 | Pericentriolar material 1 protein (Homo sapiens), Q15154 K1972P | with no effect
4 | Pericentriolar material 1 protein (Homo sapiens), Q15154 K1972Q | with no effect
5 | Pericentriolar material 1 protein (Homo sapiens), Q15154 K1972R | with no effect
6 | Pericentriolar material 1 protein (Homo sapiens), Q15154 K1972S | with no effect
7 | Pericentriolar material 1 protein (Homo sapiens), Q15154 K1972T | with no effect
8 | Pericentriolar material 1 protein (Homo sapiens), Q15154 K1972V | with no effect
9 | Pericentriolar material 1 protein (Homo sapiens), Q15154 K1972W | with no effect
10 | Pericentriolar material 1 protein (Homo sapiens), Q15154 K1972Y | with no effect
11 | Pericentriolar material 1 protein (Homo sapiens), Q15154 L1969A | with no effect
12 | Pericentriolar material 1 protein (Homo sapiens), Q15154 L1969C | with no effect
13 | Pericentriolar material 1 protein (Homo sapiens), Q15154 L1969D | with no effect
14 | Pericentriolar material 1 protein (Homo sapiens), Q15154 L1969E | with no effect
15 | Pericentriolar material 1 protein (Homo sapiens), Q15154 L1969F | with no effect
16 | Pericentriolar material 1 protein (Homo sapiens), Q15154 L1969G | with no effect
17 | Pericentriolar material 1 protein (Homo sapiens), Q15154 L1969H | with no effect
18 | Pericentriolar material 1 protein (Homo sapiens), Q15154 L1969I | with no effect
19 | Pericentriolar material 1 protein (Homo sapiens), Q15154 L1969K | with no effect
20 | Pericentriolar material 1 protein (Homo sapiens), Q15154 L1969M | with no effect
21 | Pericentriolar material 1 protein (Homo sapiens), Q15154 L1969N | with no effect
22 | Pericentriolar material 1 protein (Homo sapiens), Q15154 L1969P | with no effect

Row | Substance | effect of a mutation on the interaction
23 | Pericentriolar material 1 protein (Homo sapiens), Q15154 L1969Q | with no effect
24 | Pericentriolar material 1 protein (Homo sapiens), Q15154 L1969R | with no effect
25 | Pericentriolar material 1 protein (Homo sapiens), Q15154 L1969S | with no effect
26 | Pericentriolar material 1 protein (Homo sapiens), Q15154 L1969T | disrupting interaction strength
27 | Pericentriolar material 1 protein (Homo sapiens), Q15154 L1969V | with no effect
28 | Pericentriolar material 1 protein (Homo sapiens), Q15154 L1969W | with no effect
29 | Pericentriolar material 1 protein (Homo sapiens), Q15154 L1969Y | with no effect
30 | Pericentriolar material 1 protein (Homo sapiens), Q15154 L1971A | with no effect
31 | Pericentriolar material 1 protein (Homo sapiens), Q15154 L1971C | with no effect
32 | Pericentriolar material 1 protein (Homo sapiens), Q15154 L1971D | with no effect
33 | Pericentriolar material 1 protein (Homo sapiens), Q15154 L1971E | with no effect
34 | Pericentriolar material 1 protein (Homo sapiens), Q15154 L1971F | with no effect
35 | Pericentriolar material 1 protein (Homo sapiens), Q15154 L1971G | with no effect
36 | Pericentriolar material 1 protein (Homo sapiens), Q15154 L1971H | with no effect
37 | Pericentriolar material 1 protein (Homo sapiens), Q15154 L1971I | with no effect
38 | Pericentriolar material 1 protein (Homo sapiens), Q15154 L1971K | with no effect
39 | Pericentriolar material 1 protein (Homo sapiens), Q15154 L1971M | with no effect
40 | Pericentriolar material 1 protein (Homo sapiens), Q15154 L1971N | with no effect
41 | Pericentriolar material 1 protein (Homo sapiens), Q15154 L1971P | with no effect
42 | Pericentriolar material 1 protein (Homo sapiens), Q15154 L1971Q | with no effect
43 | Pericentriolar material 1 protein (Homo sapiens), Q15154 L1971R | with no effect
44 | Pericentriolar material 1 protein (Homo sapiens), Q15154 L1971S | with no effect

Row | Substance | effect of a mutation on the interaction
45 | Pericentriolar material 1 protein (Homo sapiens), Q15154 L1971T | with no effect
46 | Pericentriolar material 1 protein (Homo sapiens), Q15154 L1971V | with no effect
47 | Pericentriolar material 1 protein (Homo sapiens), Q15154 L1971W | with no effect
48 | Pericentriolar material 1 protein (Homo sapiens), Q15154 L1971Y | with no effect
49 | Pericentriolar material 1 protein (Homo sapiens), Q15154 L1973A | with no effect
50 | Pericentriolar material 1 protein (Homo sapiens), Q15154 L1973C | with no effect
51 | Pericentriolar material 1 protein (Homo sapiens), Q15154 L1973D | with no effect
52 | Pericentriolar material 1 protein (Homo sapiens), Q15154 L1973E | with no effect
53 | Pericentriolar material 1 protein (Homo sapiens), Q15154 L1973F | with no effect
54 | Pericentriolar material 1 protein (Homo sapiens), Q15154 L1973G | with no effect
55 | Pericentriolar material 1 protein (Homo sapiens), Q15154 L1973H | with no effect
56 | Pericentriolar material 1 protein (Homo sapiens), Q15154 L1973I | with no effect
57 | Pericentriolar material 1 protein (Homo sapiens), Q15154 L1973K | with no effect
58 | Pericentriolar material 1 protein (Homo sapiens), Q15154 L1973M | with no effect
59 | Pericentriolar material 1 protein (Homo sapiens), Q15154 L1973N | with no effect
60 | Pericentriolar material 1 protein (Homo sapiens), Q15154 L1973P | with no effect
61 | Pericentriolar material 1 protein (Homo sapiens), Q15154 L1973Q | with no effect
62 | Pericentriolar material 1 protein (Homo sapiens), Q15154 L1973R | with no effect
63 | Pericentriolar material 1 protein (Homo sapiens), Q15154 L1973S | with no effect
64 | Pericentriolar material 1 protein (Homo sapiens), Q15154 L1973T | with no effect
65 | Pericentriolar material 1 protein (Homo sapiens), Q15154 L1973V | with no effect

From IntAct's records for PubMed 28712572
